Here are results for one molecule from patent publication US8709741B2, “Methods of diagnosing a plasmodium infection” (priority 2009, dated 2014).

This assay has as its system P. falciparum-infected erythrocytes. Description: GX sPLA2 lipolysis of infected red blood cells, young and mature stages (NEFA). The settings on record: no serum, 5 h at 37° C. In kind it is cell-based, human. The method, then: A semi-synchronous culture of P. falciparum (2.5% parasitaemia) was analysed for sensitivity to GX sPLA2 at early and late development stages. Parasitaemia and stage distribution were determined from Diff-Quick-stained smears. Early stages were processed at t 0 h and late stages were processed 24 h later (t 24 h). Cultures were washed and cells were re-suspended at 50% haematocrit in RPMI 0.05% BSA, and then distributed into wells of a 96-well microplate in the presence or absence of respectively 30.0 nM of GX sPLA2 and 0.2 nM of bee venom sPLA2. Non-infected erythrocytes and human serum were processed similarly, after all samples had been adjusted for same phosphatidylcholine (PC) content. […] NEFAs in each sample were measured in triplicate using the NEFA-C kit (WAKO). […]
A parasite culture was enriched in young parasite stages (rings+early trophozoites) by sorbitol treatment. Parasitaemia (2.5-3%) and stage distribution were determined from Diff-Quick staining of culture smears. […] NEFAs in erythrocyte samples are expressed as the sum of NEFAs from ghosts and corresponding supernatant.
The membranolytic activity of the recombinant GX sPLA2 on RBCs infected by either young (ring/young trophozoite) or mature (late trophozoite/schizont) parasites was analysed. […] Parasite cultures were incubated with GX sPLA2 in the absence of serum for 5 h and NEFA production was measured thereafter. […]

B1: X: recombinant human group X secreted phospholipase A2 (protein, UniProt O15496 43-165, looked up)
Group 10 secretory …: GILELAGTVGCVGPRTPIAYMKYGCFCGLGGHGQPRDAIDWCCHGHDCCYTRAEEAGCSPKTERYSWQCVNQSVLCGPAENKCQELLCKCDQEIANCLAQTEYNLKYLFYPQFLCEPDSPKCD
With B1, the “membranolytic activity on healthy (non-infected) erythrocytes” value (30 nM) is recorded as “left intact”. Also, where the note is “GX 30 nM, bee venom 0.2 nM”, the “membranolytic activity on parasite culture erythrocytes (NEFA release, words)” value was “induced the release of NEFAs from the parasite culture with predominance for the schizont stages”.
